Assay results reported in publication PMC8564726, “Heterodimerization of H3K9 histone methyltransferases G9a and GLP activates methyl reading and writing capabilities” (The Journal of Biological Chemistry, 2021).

What was measured:
[1] = biological target: fluoresceinated H3(1-20) K9me2 peptide, P68431; assay: fluorescence polarisation; fluoresceinated H3(1-20) K9me1 or K9me2 peptide at 150 nM, enzyme titrated; 100 mM Tris pH 8, 100 mM KCl, 1 mM MgCl2, 20 μM ZnSO4, 10 mM BME, 0.1% NP-40
[2] = biological target: unmethylated mononucleosome (H3K9me0), 147 bp 601 DNA 5'-fluorescein-labeled; assay: fluorescence polarisation; core mononucleosomes (147 bp 601 DNA, 5' fluorescein) at 150 nM, enzyme titrated; 100 mM Tris pH 8, 100 mM KCl, 1 mM MgCl2, 20 μM ZnSO4, 10 mM BME, 0.1% NP-40
[3] = biological target: G9a ANK-SET, tags removed; assay: SEC-MALS; His and MBP tags removed; injected at 10 μM, Shodex KW804 column, 0.4 ml per minute
[4] = biological target: N-terminally 6xHis-tagged G9a ANK-SET; assay: pull-down; His:G9a coexpressed with MBP:G9a or MBP:GLP in E. coli; sequential cobalt and amylose resin purification; SyPRO Red stained bands quantified

Row | Kd [2] | stoichiometry N (MBP protein per His:G9a) [4] | Binder | also measured
1 | 26.3 µM | – | GLP ANK-SET homodimer (complex, modifications not checked) QEKSLAAEGRADTTTGSIAGAPEDERSQSTAPQAPECFDPAGPAGLVRPTSGLSQGPGKETLESALIALDSEKPKKLRFHPKQLYFSARQGELQKVLLMLVDGIDPNFKMEHQSKRSPLHAAAEAGHVDICHMLVQAGANIDTCSEDQRTPLMEAAENNHLDAVKYLIKAGAQVDPKDAEGSTCLHLAAKKGHYDVVQYLLSNGQMDVNCQDDGGWTPMIWATEYKHVELVKLLLSKGSDINIRDNEENICLHWAAFSGCVDIAEILLAAKCDLHAVNIHGDSPLHIAARENRYDCVVLFLSRDSDVTLKNKEGETPLQCASLSSQVWSALQMSKALRDSAPDKPVAVEKTVSRDIARGYERIPIPCVNAVDSELCPTNYKYVSQNCVTSPMNIDRNITHLQYCVCVDDCSSSTCMCGQLSMRCWYDKDGRLLPEFNMAEPPLIFECNHACSCWRNCRNRVVQNGLRARLQLYRTQDMGWGVRSLQDIPLGTFVCEYVGELISDSEADVREEDSYLFDLDNKDGEVYCIDARFYGNVSRFINHHCEPNLVPVRVFMSHQDLRFPRIAFFSTRLIQAGEQLGFDYGERFWDVKGKLFSCRCGSSKCRHSSAALAQRQASAAQEPQENGLPDTSSAAAADPL | fold reduction of binding (reference not clearly named) [1]: 12.5 times
2 | – | – | GLP ANK-SET, tags removed (domain or fragment, modifications not checked) QEKSLAAEGRADTTTGSIAGAPEDERSQSTAPQAPECFDPAGPAGLVRPTSGLSQGPGKETLESALIALDSEKPKKLRFHPKQLYFSARQGELQKVLLMLVDGIDPNFKMEHQSKRSPLHAAAEAGHVDICHMLVQAGANIDTCSEDQRTPLMEAAENNHLDAVKYLIKAGAQVDPKDAEGSTCLHLAAKKGHYDVVQYLLSNGQMDVNCQDDGGWTPMIWATEYKHVELVKLLLSKGSDINIRDNEENICLHWAAFSGCVDIAEILLAAKCDLHAVNIHGDSPLHIAARENRYDCVVLFLSRDSDVTLKNKEGETPLQCASLSSQVWSALQMSKALRDSAPDKPVAVEKTVSRDIARGYERIPIPCVNAVDSELCPTNYKYVSQNCVTSPMNIDRNITHLQYCVCVDDCSSSTCMCGQLSMRCWYDKDGRLLPEFNMAEPPLIFECNHACSCWRNCRNRVVQNGLRARLQLYRTQDMGWGVRSLQDIPLGTFVCEYVGELISDSEADVREEDSYLFDLDNKDGEVYCIDARFYGNVSRFINHHCEPNLVPVRVFMSHQDLRFPRIAFFSTRLIQAGEQLGFDYGERFWDVKGKLFSCRCGSSKCRHSSAALAQRQASAAQEPQENGLPDTSSAAAADPL | stoichiometry N [3]: 1 GLP per G9a
3 | 6 to 7 µM | – | G9a-GLP ANK-SET heterodimer (complex, modifications not checked) chain 1: DAPGRADTSQPSARMRGHGEPRRPPCDPLADTIDSSGPSLTLPNGGCLSAVGLPPGPGREALEKALVIQESERRKKLRFHPRQLYLSVKQGELQKVILMLLDNLDPNFQSDQQSKRTPLHAAAQKGSVEICHVLLQAGANINAVDKQQRTPLMEAVVNNHLEVARYMVQLGGCVYSKEEDGSTCLHHAAKIGNLEMVSLLLSTGQVDVNAQDSGGWTPIIWAAEHKHIDVIRMLLTRGADVTLTDNEENICLHWASFTGSAAIAEVLLNAQCDLHAVNYHGDTPLHIAARESYHDCVLLFLSRGANPELRNKEGDTAWDLTPERSDVWFALQLNRKLRLGVGNRAVRTEKIICRDVARGYENVPIPCVNGVDGEPCPEDYKYISENCETSTMNIDRNITHLQHCTCVDDCSSSNCLCGQLSIRCWYDKDGRLLQEFNKIEPPLIFECNQACSCWRSCKNRVVQSGIKVRLQLYRTAKMGWGVRALQTIPQGTFICEYVGELISDAEADVREDDSYLFDLDNKDGEVYCIDARYYGNISRFINHLCDPNIIPVRVFMLHQDLRFPRIAFFSSRDIRTGEELGFDYGDRFWDIKSKYFTCQCGSEKCKHSAEAIALEQSRLARLDPHPELLPDLSSLPPINT chain 2: QEKSLAAEGRADTTTGSIAGAPEDERSQSTAPQAPECFDPAGPAGLVRPTSGLSQGPGKETLESALIALDSEKPKKLRFHPKQLYFSARQGELQKVLLMLVDGIDPNFKMEHQSKRSPLHAAAEAGHVDICHMLVQAGANIDTCSEDQRTPLMEAAENNHLDAVKYLIKAGAQVDPKDAEGSTCLHLAAKKGHYDVVQYLLSNGQMDVNCQDDGGWTPMIWATEYKHVELVKLLLSKGSDINIRDNEENICLHWAAFSGCVDIAEILLAAKCDLHAVNIHGDSPLHIAARENRYDCVVLFLSRDSDVTLKNKEGETPLQCASLSSQVWSALQMSKALRDSAPDKPVAVEKTVSRDIARGYERIPIPCVNAVDSELCPTNYKYVSQNCVTSPMNIDRNITHLQYCVCVDDCSSSTCMCGQLSMRCWYDKDGRLLPEFNMAEPPLIFECNHACSCWRNCRNRVVQNGLRARLQLYRTQDMGWGVRSLQDIPLGTFVCEYVGELISDSEADVREEDSYLFDLDNKDGEVYCIDARFYGNVSRFINHHCEPNLVPVRVFMSHQDLRFPRIAFFSTRLIQAGEQLGFDYGERFWDVKGKLFSCRCGSSKCRHSSAALAQRQASAAQEPQENGLPDTSSAAAADPL | –
4 | – | 1 | N-terminally Maltose-Binding Protein tagged GLP ANK-SET (domain or fragment, modifications not checked) QEKSLAAEGRADTTTGSIAGAPEDERSQSTAPQAPECFDPAGPAGLVRPTSGLSQGPGKETLESALIALDSEKPKKLRFHPKQLYFSARQGELQKVLLMLVDGIDPNFKMEHQSKRSPLHAAAEAGHVDICHMLVQAGANIDTCSEDQRTPLMEAAENNHLDAVKYLIKAGAQVDPKDAEGSTCLHLAAKKGHYDVVQYLLSNGQMDVNCQDDGGWTPMIWATEYKHVELVKLLLSKGSDINIRDNEENICLHWAAFSGCVDIAEILLAAKCDLHAVNIHGDSPLHIAARENRYDCVVLFLSRDSDVTLKNKEGETPLQCASLSSQVWSALQMSKALRDSAPDKPVAVEKTVSRDIARGYERIPIPCVNAVDSELCPTNYKYVSQNCVTSPMNIDRNITHLQYCVCVDDCSSSTCMCGQLSMRCWYDKDGRLLPEFNMAEPPLIFECNHACSCWRNCRNRVVQNGLRARLQLYRTQDMGWGVRSLQDIPLGTFVCEYVGELISDSEADVREEDSYLFDLDNKDGEVYCIDARFYGNVSRFINHHCEPNLVPVRVFMSHQDLRFPRIAFFSTRLIQAGEQLGFDYGERFWDVKGKLFSCRCGSSKCRHSSAALAQRQASAAQEPQENGLPDTSSAAAADPL | –
5 | 6 to 7 µM | – | G9a ANK-SET homodimer (complex, modifications not checked) DAPGRADTSQPSARMRGHGEPRRPPCDPLADTIDSSGPSLTLPNGGCLSAVGLPPGPGREALEKALVIQESERRKKLRFHPRQLYLSVKQGELQKVILMLLDNLDPNFQSDQQSKRTPLHAAAQKGSVEICHVLLQAGANINAVDKQQRTPLMEAVVNNHLEVARYMVQLGGCVYSKEEDGSTCLHHAAKIGNLEMVSLLLSTGQVDVNAQDSGGWTPIIWAAEHKHIDVIRMLLTRGADVTLTDNEENICLHWASFTGSAAIAEVLLNAQCDLHAVNYHGDTPLHIAARESYHDCVLLFLSRGANPELRNKEGDTAWDLTPERSDVWFALQLNRKLRLGVGNRAVRTEKIICRDVARGYENVPIPCVNGVDGEPCPEDYKYISENCETSTMNIDRNITHLQHCTCVDDCSSSNCLCGQLSIRCWYDKDGRLLQEFNKIEPPLIFECNQACSCWRSCKNRVVQSGIKVRLQLYRTAKMGWGVRALQTIPQGTFICEYVGELISDAEADVREDDSYLFDLDNKDGEVYCIDARYYGNISRFINHLCDPNIIPVRVFMLHQDLRFPRIAFFSSRDIRTGEELGFDYGDRFWDIKSKYFTCQCGSEKCKHSAEAIALEQSRLARLDPHPELLPDLSSLPPINT | –
6 | – | 1 | N-terminally Maltose-Binding Protein tagged G9a ANK-SET (domain or fragment) DAPGRADTSQPSARMRGHGEPRRPPCDPLADTIDSSGPSLTLPNGGCLSAVGLPPGPGREALEKALVIQESERRKKLRFHPRQLYLSVKQGELQKVILMLLDNLDPNFQSDQQSKRTPLHAAAQKGSVEICHVLLQAGANINAVDKQQRTPLMEAVVNNHLEVARYMVQLGGCVYSKEEDGSTCLHHAAKIGNLEMVSLLLSTGQVDVNAQDSGGWTPIIWAAEHKHIDVIRMLLTRGADVTLTDNEENICLHWASFTGSAAIAEVLLNAQCDLHAVNYHGDTPLHIAARESYHDCVLLFLSRGANPELRNKEGDTAWDLTPERSDVWFALQLNRKLRLGVGNRAVRTEKIICRDVARGYENVPIPCVNGVDGEPCPEDYKYISENCETSTMNIDRNITHLQHCTCVDDCSSSNCLCGQLSIRCWYDKDGRLLQEFNKIEPPLIFECNQACSCWRSCKNRVVQSGIKVRLQLYRTAKMGWGVRALQTIPQGTFICEYVGELISDAEADVREDDSYLFDLDNKDGEVYCIDARYYGNISRFINHLCDPNIIPVRVFMLHQDLRFPRIAFFSSRDIRTGEELGFDYGDRFWDIKSKYFTCQCGSEKCKHSAEAIALEQSRLARLDPHPELLPDLSSLPPINT | –
